From patent publication US20210363269A1 (ALX ONCOLOGY, published 2021)

T1: cynomolgus SIRP-α (cynomolgus monkey, UniProt Q5TFQ8 30-148 (human entry), limits assumed)
T1 construct: also called cyno1
T1 chain: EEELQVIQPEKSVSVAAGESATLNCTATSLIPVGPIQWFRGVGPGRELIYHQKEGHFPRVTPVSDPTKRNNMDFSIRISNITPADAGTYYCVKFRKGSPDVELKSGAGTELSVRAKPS

T2: mouse 129 SIRP-α (mouse (129 strain), UniProt P97797 32-150)
T2 construct: also called m129
T2 chain: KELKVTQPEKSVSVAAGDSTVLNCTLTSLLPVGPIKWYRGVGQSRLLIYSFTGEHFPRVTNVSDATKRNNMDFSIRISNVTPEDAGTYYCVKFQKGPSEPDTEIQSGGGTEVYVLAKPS


Tests used:
human SIRP-α v1 = biological target: T3, human SIRP-α v1 (human, UniProt P78324 31-149); assay: SPR
T3 construct: also called Human v1; Human V1
T3 sequence (P78324 31-149 limits assumed): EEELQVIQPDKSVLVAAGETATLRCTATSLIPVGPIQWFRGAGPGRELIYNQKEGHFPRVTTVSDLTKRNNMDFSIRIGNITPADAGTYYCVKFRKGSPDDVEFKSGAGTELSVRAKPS
How it was run: (§1)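 Runs took place at 25° C in PBS pH 7.4 containing 0.01% Tween-20 on a ProteOn XPR36 biosensor, with purified antibodies either amine-coupled to a GLC chip or captured through biotinylated Protein A on an NLC chip. SIRP analytes went in by one-shot kinetic injection at nominal concentrations based on A280 absorbance. Apparent rate constants came from a global simple Langmuir fit of double-referenced data, and KD was calculated as kd/ka.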

human SIRP-α v2 = biological target: T4, human SIRP-α v2 (human); assay: SPR
T4 construct: also called Human v2; Human V2
T4 sequence (chain, as listed by the source limits assumed): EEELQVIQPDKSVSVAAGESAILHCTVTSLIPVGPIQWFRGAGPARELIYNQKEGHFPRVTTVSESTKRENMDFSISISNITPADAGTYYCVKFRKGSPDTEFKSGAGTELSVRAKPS
How it was run: as §1

cynomolgus SIRP-α = biological target: T1, cynomolgus SIRP-α; assay: SPR Koff +/-
How it was run: as §1

mouse 129 SIRP-α = biological target: T2, mouse 129 SIRP-α; assay: SPR Koff +/-
How it was run: as §1

human SIRPβ isoform 1 = biological target: T5, human SIRPβ isoform 1 (human, UniProt O00241 30-148); assay: SPR Koff +/-
T5 construct: also called Beta; Human SIRPb
T5 sequence (O00241 30-148 limits assumed): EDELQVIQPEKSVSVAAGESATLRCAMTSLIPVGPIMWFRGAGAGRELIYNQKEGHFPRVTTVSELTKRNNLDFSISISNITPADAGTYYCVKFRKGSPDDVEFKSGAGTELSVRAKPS
How it was run: as §1

human SIRPγ isoform 1 = biological target: T6, human SIRPγ isoform 1 (human, UniProt Q9P1W8 29-147); assay: SPR Koff +/-
T6 construct: also called Gamma; Human SIRPg
T6 sequence (Q9P1W8 29-147 limits assumed): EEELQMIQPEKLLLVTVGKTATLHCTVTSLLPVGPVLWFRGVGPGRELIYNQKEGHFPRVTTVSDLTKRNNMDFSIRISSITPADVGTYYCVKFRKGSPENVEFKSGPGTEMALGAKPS
How it was run: as §1

| Binder | Kd (human SIRP-α v1) | Kd (human SIRP-α v2) | binding result (cynomolgus SIRP-α) | binding result (mouse 129 SIRP-α) | binding result (human SIRPβ isoform 1) | binding result (human SIRPγ isoform 1) |
| --- | --- | --- | --- | --- | --- | --- |
| antibody 115 (antibody, V domains shown, also called S115) VH: DVQLVESGGGVVRPGESLRLSCAASGFSFSSYAMNWVRQAPGEGLEWVSRINSGGGGTDYAESVKGRFTISRDNSENTLYLQMNSLRAEDTAVYYCAKQYDWNSFFDYWGLGALVTVSS VL: ETVLTQSPATLSVSPGERATLSCRASQTVGSKLAWHQQKPGQAPRLLIYDATNRATGISDRFSGSGSGTDFTLTISSLQTEDSAVYYCQQYYYWPPYRFGGGTKVEIK | 0.0177 nM | 0.015 nM | binds | no binding | binds | binds |
| antibody 117 (antibody, V domains shown, also called S117) VH: VQLVESGGGVVRPGESLRLSCAASGFSFSSYAMNWVRQAPGEGLEWVSRINSGGGGTDYAESVKGRFTISRDNSENTLYLQMNSLRAEDTAVYYCAKQYDWNGFFDYWGLGALVTVSS VL: ETVLTQSPATLSVSPGERATLSCRASQTVGSKLAWHQQKPGQAPRLLIYDATNRATGIPDRFSGSGSGTDFTLTISSLQTEDSAVYYCQQYYYWPPYRFGGGTKVEIK | 0.0312 nM |  | binds | no binding | binds | binds |
| antibody 118 (antibody, V domains shown, also called S118) VH: VQLVESGGGVVRPGESLRLSCAASGFSFSSYAMNWVRQAPGEGLEWVSRINSGGGGTDYAESVKGRFTISRDNSENTLYLQMNSLRAEDTAVYYCAKQYDWNGFFDYWGLGALVTVSS VL: ETVLTQSPATLSVSPGERATLSCRASQTVGSKLAWHQQKPGQAPRLLIYDASRRATGIPDRFSGSGSGTDFTLTISSLQTEDSAVYYCQQYYYWPPYRFGGGTKVEIK | 0.0403 nM |  | binds | no binding | binds | binds |
| antibody 209 (antibody, V domains shown, also called S209) VH: DVQLVESGGAVVRPGESLRLSCKASGFTFTNFAMSWVRQAPGEGLEWVSGISGSDDTTYYADSVKGRFTISRDNSESTLYLQMNSLRAEDTAVYYCVKDSTVSWNTFFDYWGLGTLVTVSS VL: ALTQPASVSANLGGTVKITCSGGYGSDDGSSSYYGWYQQKSPGSAPVILIYWDDKRPSDIPSRFSGSTSGSTTTLTITGVQAEDEAVYFCGTYDTSSGAIFGAGTTLTVL | 0.171 nM | 5.01 nM | no binding |  |  | no binding |
| antibody 122 (antibody, V domains shown, also called S122) VH: VQLVESGGGVVRPGESLRLSCAASGFRFSNFAMTWVRQAPGEGLEWVSTIGSGDTYYADSVKGRFTISRDNSKNTLYLQMNSLRAEDTAVYYCAKDSTVSWSGDFFDYWGLGTLVTVSS VL: EIVLTQSPATLSVSPGERATFSCRASQNVKNDLAWYQQRPGQAPRLLIYAARIRETGIPERFSGSGSGTEFTLTITSLQSEDFAVYYCQQYYDWPPFTFGGGTKVEIK | 0.214 nM | 0.0778 nM | binds | no binding | binds | binds |
| antibody 161 (antibody, V domains shown, also called S161) VH: DVQLVESGGGVVRPGESLRLSCAASGFTFSNFAMTWVRQAPGKGPEWVSLVSVTATTYYADSVKGRFTISRDNSKSTLYLQMNSLRAEDTAVYYCAKITWNNLFDYWGLGTLVTVSS VL: EIVLTQSPGTLSLSPGERATLSCRASQTVGSKLAWYQQKPGQAPRLLIYDSSSRASGIPDRFSGSGSGTDFTLTISSLQSEDSAVYYCQQHNDWPPYTFGGGTKVEIK | 1.03 nM | 0.127 nM |  | no binding |  | no binding |
| antibody 174 (antibody, V domains shown, also called S174) VH: DVQLVESGGGVVRPGESLRLSCAASGFTFSDHDMSWVRQGPGEGLEWVAGISLRGGVTWYADSVKGRFTISRDNSKNTLYLRLFSLRTEDTAIYYCARESWNTFFDYWGLGTLVTVSS VL: EIVLTQSPGTLSLSPGETATLSCRASQNVRSNLAWYQQKPGQAPRLLIYDASSRATGIPDRFSGSGSGTDFTLTISSLQSEDFAVYYCQQYGNGPPLTFGGGTKVEIK |  |  | no binding | no binding | no binding | no binding |
